{"source": "the DeepSol protein solubility set"}
{"experiment": "soluble on expression in E. coli; label from the status in PepcDB or PDB records"}
{"sequence": "MGSDKIHHHHHHMRFGYFDDVNREYVITTPQTPYPWINYLGTEDFFSIISHMAGGYCFYKDARLRRITRFRYNNVPTDAGGRYFYIREENGDFWTPTWMPVRKDLSFFEARHGLGYTKITGERNGLRATITYFVPRHFTGEVHYLVLENKAEKPRKIKLFSFIEFCLWNALDDMTNFQRNYSTGEVEIEGSVIYHKTEYRERRNHYAFYSVNQPIDGFDTDRESFIGLYSGFEAPQAVVEGKPRNSVASGWAPIASHYLEIELAPSEKKELIFILGYVENPEEEKWEKPGVINKKRAKEMIEKFKTGEDVEHALKELREYWDDLLGRIQVETHDEKLNRMVNIWNQYQCMVTFNISRSASYFESGISRGIGFRDSNQDILGFVHMIPEKARQRILDLASIQFEDGSTYHQFQPLTKKGNNEIGGGFNDDPLWLILSTSAYIKETGDWSILGEEVPFDNDPNKKASLFEHLKRSFYFTVNNLGPHGLPLIGRADWNDCLNLNCFSKNPDESFQTTVNALDGRVAESVFIAGLFVLAGKEFVEICKRRGLEEEAREAEKHVNKMIETTLKYGWDGEWFLRAYDAFGRKVGSKECEEGKIFIEPQGMCVMAGIGVDNGYAEKALDSVKKYLDTPYGLVLQQPAYSRYYIELGEISSYPPGYKENAGIFCHNNPWVAIAETVIGRGDRAFEIYRKITPAYLEDISEIHRTEPYVYAQMVAGKDAPRHGEAKNSWLTGTAAWSFVAITQHILGIRPTYDSLVVDPCIPKEWEGFRITRKFRGSIYDITVKNPSHVSKGVKEIIVDGKKIEGQVLPVFEDGKVHRVEVVMG", "soluble on expression in E. coli": "not soluble"}
{"sequence": "MRNFTRTLEPEGITEMPQEGLRFVVQHHLARRDHYDLRLEWDGAMLSWAVPKGPSYNTWDKRLAVQVEDHPLEYRHFEGTIPKGEYGGGVVMLWDEGFWEPYVDVDGGLHEGMLKFVLKGRRLKGRWALVRMKGKAGDKKDNWLLLKEKDDYVQTADGISQFTTSLEHHHHHH", "soluble on expression in E. coli": "soluble"}
{"sequence": "MTDYGDADKYVNDESIEMAWAIKAGERSEVHMNLIMRCDTRVLRLNKHQDAILAAFRSSFPDLNVEEVTTSLLKDGGAKETWREFCEQFKDIVDDYSMGTLMRIHASKAYSPENTVVVPRIIYLAIEMARNVEGVNEKNKEAYTAHRNSLASL", "soluble on expression in E. coli": "soluble"}
{"sequence": "MCGIFAYLNFLTPKKRSEIVDILVQGLQRMEYRGYDSAGIAIDGSNEIESPHSSVALLRKAGKVSVLSDFIKESSSDLDMDMEYNIHCGIAHTRWATHGSPRDVNSHPHRSNDKNEFLVVHNGIITNYREIKEYLEKKGHKFESETDTEVIAKLAQHIHDRYPDFSFRQLVETVIQQLEGAFALAFKSSRFPGQLVASRRGSPLLVGIKSNSRLQTNHFPVSFSKDAGWKWGDEKQTDGRRFMSNHATHLRDETSFVETPNNILDLSIAVRSSNGSAKMEISDSTTAVRPFDSDDWEVEYFVASDAAAIIEHTKQVLFLEDDDVAFVEDGALTIHRISRHADNGEQKREVKLLEMELQEIMKGSFKTYMQKEIFEQPDSVVNTMRGRVLPSGQVVLGGIKEYLPDIKRCRRLIMVACGTSYHSAIACRQILEELSELPVVVELASDFLDRETPIFRDDVCLFISQSGETADTLLALRYCKPRGALTIGVTNTVGSSICRESHCGIHINAGPEIGVASTKAYTSQILSLLMFALTLSDDRISMAKRREEIIDALNDLPELIREVLQLDEKVLDIAKQIYKEKSLLIMGRGLNFATCLEGALKIKELSYMHCEGIMSGELKHGPLAMVDEFLSICMVVCNDRVYKKSLNALQQVVARKGAPIIIADCTVPEGDLAGMKHILRVPKTVDCVQNILTVIPLQLLSYHIAELNGANVDRPRNLAKSVTVE", "soluble on expression in E. coli": "not soluble"}
{"sequence": "MICFCAERFQWRRLWQIPGDLLFPGPADMARALLYRRPTEPSTIPVRHGSQFFAVRIRRHRRARRYTLRIHPSDREAILTMPPRGTLADAKEFAQRHGAWIAARLGRLPKAAPFLPGTLVPLRGHDHKIVHRTGRGTVWTEVRESGEKILCVAGETEHIERRVLDFLKREARKDLQKACDRYAPELGVKVTRLSIRDQSSRWGSCTSAGSLSFSWRLILAPSYVLDYLAAHEVAHLVEMNHSARFWRVVGKVCPQMERAKTWLDSYGNDLHRYGISDLEHHHHHH", "soluble on expression in E. coli": "soluble"}
